Results as given in paper PMC11903955.

Biological target: T1, CDK8 (Arabidopsis thaliana, UniProt Q84TI6 1-470)
T1 sequence: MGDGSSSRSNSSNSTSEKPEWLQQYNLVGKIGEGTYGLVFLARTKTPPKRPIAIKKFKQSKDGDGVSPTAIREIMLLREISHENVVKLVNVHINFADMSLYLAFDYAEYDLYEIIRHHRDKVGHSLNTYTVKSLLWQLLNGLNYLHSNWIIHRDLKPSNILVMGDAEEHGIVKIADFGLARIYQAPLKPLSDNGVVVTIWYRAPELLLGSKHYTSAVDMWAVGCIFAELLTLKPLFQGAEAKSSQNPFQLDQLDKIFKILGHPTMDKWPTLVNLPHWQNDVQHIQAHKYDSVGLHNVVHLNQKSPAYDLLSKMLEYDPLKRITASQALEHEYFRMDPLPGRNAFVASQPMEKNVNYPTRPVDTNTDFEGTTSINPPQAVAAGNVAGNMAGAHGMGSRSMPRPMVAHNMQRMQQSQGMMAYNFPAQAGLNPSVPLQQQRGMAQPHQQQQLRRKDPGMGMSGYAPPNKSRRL
Assay: EMSA

B1: AT-rich probe (dsDNA)
DNA 1: TAACACATATTTTGATAAATTTATTACTAAAACTATTTT
DNA 2: AAAATAGTTTTAGTAATAAATTTATCAAAATATGTGTTA
- binding result: no binding
